Assay results taken from the DeepSol protein solubility set.

Assay: soluble on expression in E. coli; label from the status in PepcDB or PDB records

| Sequence | soluble on expression in E. coli |
| --- | --- |
| MGSDKIHHHHHHMINAKNIRFSYPRQRSLFESLNLDLPKGSITGLLGRNGEGKTTLLKLLCGQLLRKDGNLTVLTEDPRHRSVKFLSKVFLLQEEVTCPNVSIRDYFRMITPFYPSYSPEVAQEIIIAFDLNWDMKLGKVSQGQKKKAVIALALSLRTPLLLMDEPTNGLDIPSKSAFRRLMARYITEEQTVIISTHQVRDLEQIIDRIVMMDKNAIVCNRSVAELSEQFAFRQVVPGDKPIYKEGSTMGEVGVYENTTGEETPFSMELFFNGMIAEREVFNRVLNR | not soluble |
| MRTMPDAPALHLTAIDSHAHVFSRGLNLASQRRYAPNYDAPLGDYLGQLRAHGFSHGVLVQPSFLGTDNRYLLSALQTVPGQLRGVVMLERDVEQATLAEMARLGVRGVRLNLMGQDMPDLTGAQWRPLLERIGEQGWHVELHRQVADIPVLVRALQPYGLDIVIDHFGRPDARRGLGQPGFAELLTLSGRGKVWVKVSGIYRLQGSPEENLAFARQALCALEAHYGAERLMWGSDWPHTQHESEVSFGSAVEQFEALGCSAQLRQALLLDTARALFGFELEHHHHHH | soluble |
| MSRTKDQAAAVLPTLLSALRLPSISRNWKHLTDTADRDGWPAANLLACLLEIEMAERASRRIQRHREQSGLPAGKTFATFDFDFPSGIRKPHLLSLATGEGWIESGGNILIFGQSGTGKTHVIAAIGHALIDAGRRVLFSTTTEMVQKLQAARRELSLPSMLDKLDKYDLIVLDSCAVRRDVESPSLGATFARRVARATQHKAAALEHHHHHH | not soluble |
| MGSDKIHHHHHHMPGSQQSLPLAMVRGQALNSMPVDLFIPPEALEVFLETFEGPLDLLLYLIRKQKLDVVDLPIQQITQQYLLYIEILTEARIELAADYLVMAATLAEIKSRLLLPKMASEDDEEEDPRVVLIRQLKAYEVIKQAAVDIDTLPRIERDVFQASVSAAPDIKPITVPPEVSLVDIARAFGEVLKRIDANEDHHVKREHLSTRERMSQILAKLSSTEYIGFECLFDVSEGRAGVVVSFLALMELVKELLVELVQNEPFSPIYVKAY | not soluble |
| GSGSEPAVCEMCGIVGTREAFFSKTKRFCSVSCSRSYSSNSKK | soluble |
| MGSDKIHHHHHHMLAENLKSLYLDEWNRYVGHEFVRRMEHGDLPLENFKFYLVQDSLYVEEMLRAVMRSTELMPNDMAIRILSSVVLGRDKGMETHAFLEKELGVEKSSRMTMTTYSYTRHLRYSSTIGWPQFLAAWIPCMWGYSEIGKTVLNSPNRYYRTWAEFYASKEYADRVSVILEAMDRFNGDITEIKDYFLISLKFEQMFWQAAFDMEKPI | not soluble |
| YYTDPSLIRQMWDKLERDGFTGGKILDPSMGTGNFFAAMPKHLREKSELYGVELDTITGAIAKHLHPNSHIEIKGFETVAFNDNSFDLVISNVPFANIRIADNRYDRPYMIHDYFVKKSLDLLHDGGQVAIISSTGTMDKRTENILQDIRETTEFLGGVRLPDSAFKAIAGTSVTTDMLFFQKHLDKGYVA | not soluble |
| MGSDKIHHHHHHLVPPDYQDPPSDFTAEVEAGLQLNTGNNESKNFNSRAYLTYDTPKTRQEGTFKVYYAADGTETTSEKYDLFLQSSYKLNRGYVFGRGEFTWDDFGSFTEIRTLSTGYGFDLIKSYKTKLSLEAGPGYRYDMPRATLSDPEPRANREVILRTAARYSVKLQEYTSLNADVTAETGLDNNTLTLDMSYKNTFLQDWAFKIGMNVRYTQDVPQDSQRTDTTTTFNLLYTFQ | not soluble |
| MSLNKKRPLKGRFLHITDIHPDPHYKTGSTFDSGCHRKPKKDGKSEGKKATENERGNEDLDDKEFDTLIKNEDLAGKWGTAVSDCDCPMSLVNITFDWLKEEWANEVDFVVWTGDNARHDIDRRIPRTPKEIFDSNRMIVDRMLDAFGRDMPIVPSIGNNDIYPHNVLAAGPSRITEEFLLIWKHFIPSEAAHVFERGAYFSVEVIPDRLAVISLNTLFWYDANTLVDGCRDHSNDPGALEMDWLEVQLNNFRQRGMQVWLTGHVPPHMNHYYDNCYLRYGDLALRYQDTIVGHLFGHMNVDHFFFIDVDELEATSELTSTSSNTTLSDLPLLHGPRLPRPGPGKYTAMGRSGARKLEEELRKDEGHHHHHH | soluble |
| MAQMYFYYSAMNAGKSTTLLQSAFNYQERGMNPLIFTAAIDDRFGVGKVSSRIGLEAEAHLFHADTDLLHVIATLHEAEPRHCILMDECQFLSKEQVYQLTEVVDKLDIPVLCYGLRTDFLGELFEGSKYLLSWADKLIELKTICHCGRKANMVIRTDEHGNAISEGDQVAIGGNDKYVSVCRQHYKEALGR | not soluble |
| MGSDKIHHHHHHMLKKVSRLDYFTLQVFIGLVELKSGSAVAERLRTTQSKVSRCLTCLREVLEDELFIRQQYGFEPNQVAVTIYPMVKTILEQYDKIVAATIDKGAEPYQLSVATYEQWSLMAMNCVHNTCHCIEGGVSINIQPWTDKIHQRLCQGKVDCSISTEPINHPMVNNFKLGDITHFFIVARRGHPILSSDAPLTQMFNYHIALVNTHLQEQEPHPIEVYAKARHIEIRVALKSPSLRMVVDHVSHSEDIALLSSAMSMAYFENRDDVDYLDISKIWLQTTELETQSYYLHCHKGIKPELTHCLRRVLTEKLHEMQAHCDQVAQENTRDLPTL | not soluble |
| GKREPDLTGGFSTYLKYKNITFNALFSFSFGNKMRLNDLYESSGQRLPYPDQNMSSEFVNRWREPGDEDRTIIPVLSDKSLQINDKDVTYRIADNGWDMYNKSDIRVVSGSFLRCRSMSIRYDFKREWLKPVYLKGASVSFDMGNVFVIKDKALKGRDPEQIGFGSRSIPPQRSYSLRFNITL | not soluble |
| MKKRYLVLTALLALSLAACSQEKTKNEDGETKTEQTAKADGTVGSKSQGAAQKKAEVVNKGDYYSIQGKYDEIIVANKHYPLSKDYNPGENPTAKAELVKLIKAMQEAGFPISDHYSGFRSYETQTKLYQDYVNQDGKAAADRYSARPGYSEHQTGLAFDVIGTDGDLVTEEKAAQWLLDHAADYGFVVRYLKGKEKETGYMAEEWHLRYVGKEAKEIAASGLSLEEYYGFEGGDYVD | not soluble |
| MGSDKIHHHHHHMIKHIFCDLDGTLYENGTITKEDIVAIEEIEKKGVQFNVATGRIFKQAHNIIKDSLDMNGYYVCENGSFIYDKDYNVIFKRTIDDNLVKKVIDRFESSDAQLYFKYKGDVIVGSDTTAFRHYSSDFIVDPDFEKRSSFDNLIGNIGVCSENLEELSRIELYLKSEFSEVLEIYFSGTYTLNIVPKSVSKRGSIEHVIKTLNVSPDEVATIGDSPNDICMLEGFKYSFAMSKAREDVKQSANYVVDSVKSAIDVIMEINS | not soluble |
| MLNIFTTISKINITSLAIGCFDGMHLGHLKLVKCLDENGALLVINKFKGQFLCSNRQKEEISGKKVIEVDFESIKSLDGRDFLSFLKKEFVNLKFIVVGYDFSFGKNRAYNAKDIESLSGIKTIIVDEFSIDGIGVHASLIKDFLSKANLQKAKEFLGRDYSIKGKMIKGQGLGSKELFATINLDCEGYFLPQNGVYVTLLKSQRKTYKSVSFLGVRSSDENFAIESHILEELGENFTQGEFFELEFISFLRENQKFQDLKKLKNQIAKDIEQARELLRKNDER | not soluble |
| MKSLEEILQYNEKFVEEKKYEEFVAGKFPNKKMVIISCMDTRLVELLPKAMNMRNGDVKIIKVAGAVISHPFGSIMRSILVAVYELGADEVCVVGHHDCGMAKIQASSTIEKMKERGITEEKLDMLRYSGIDLEQFLRGFSSVEESVEHSVSVLRNHPLLPEEVPVHGLVIDPDTGKLDLVVNGYDN | not soluble |
| MGHHHHHHSHMVLLHVKRGDESQFLLQAPGSTELEELTVQVARVYNGRLKVQRLCSEMEELAEHGIFLPPNMQGLTDDQIEELKLKDEWGEKCVPSGGAVFKKDDIGRRNGQAPNEKMKQVLKKTIEEAKAIISKKQVEAGVCVTMEMVKDALDQLRGAVMIVYPMGLPPYDPIRMEFENKEDLSGTQAGLNVIKEAEAQLWWAAKELRRTKKLSDYVGKNEKTKIIAKIQQRGQGAPAREPIISSEEQKQLMLYYHRRQEELKRLEENDDDAYLNSPWADNTALKRHFHGVKDIKWRPR | not soluble |
| MKEALEAALREILGPGEVVALRRLPGGASKEAWAVDYRTGEALHPLFLRRAGGGVIYSKTLALAEEFRLLQVAWAHGVKVPEPLHYFPDLEGREAFLMRRLEGETIGARVVRRPELARARETLPQAMAEELAKIHALSPDEVPFLQPPSLPSWRPALKKACRDLNALGKPHPALKWGMRWLLTHPPRELPPVVVHGDFRVGNLLVNGEGLVAVLDWEFAHLGDPREDLAWPLVRAWRFGEDGKRLGGVGEVGPFLERYNALTGRDIAEEELFWWEVLGNVRWGLGALKQARRHLRGEERSVELAVLGRLASEMEYEVLHLLERYG | soluble |
| MHPKRTPGTCFPGRGRPAPPRISVTVPEEVSQQEDLLVARSSELGGNSNTAVALTFNHALTAVRFVCGNDMREGTVKQVRLKNVYSRGTYNMGTQTWSGLDTPASFSQALDKVTTGTADEALTSEAQTFMMLPQRFPEGAQIEVLFTDDTHTGHTLIADIKGSEWPMGKTVTYKISSSSLNWTYTLDVTALADFTYTGGTQQYCVTSYRQNAQGEKEAAEWTAQYAEDGTTWTDTKPVWLTAFTASGTGGEFAQPCDATVEAQTGISNDLHENALKAATAKGSETTPYNLSNNTGGNTVENTANCYVVNAPGYYSLPLVYGNAIKNSATNASAYTSTVTGTNILNPFINHAGNGITDPYISGNGCTPAKAELVWQDAMNLVTDIKYNADSNGGNISFKVDRSSIRQGNAVIAIKDVSDAILWSWHVWVTDEDINNVIEITNHQNVKYNFMPVNLGQCDGNTITYEERSCKVKFIAGDQSKEITIKQLANVIATGSNAPFYQWGRKDPLYPSNGMGNTTKIWYDKEGIPSTANPMKGTFSAGNDCIKNCILNPNLMHNRYNGDYTYYNLWSADNKTTSANDNPVNKTIYDPCPVGFKLPASNAFTGFTTTGESVSSSTQVNGTWSSSEKGWYFYTNSEKTQSIFFPALGYRSYSTMRPGSIGTQGCFWSAHPVAKGNNYYLRTSSVDVQPTYMVDRGFGYALRPCQD | not soluble |
| MSLAASRRRNTYSQKVNMSNNVRADSLSLLLFTLRSGKLMAINLLKVSEIIPCPALTHLPESHPHVKGIATLRGSSLAVIDLSRAIGERPLADPDGGCLIVTDVSRSKQGLHVQAVSKIVHCLTTDIRPPPYGSSSKSFITGVTQVDGVLVQVLDIEKVIHGIAPAQIVVQSTELAKEDAEVLSKARILVVDDSQVALQQSIITLRNLGIECHTARSAREAIDVLLDLQGTARQINVVVSDIEMSEMDGYALTRTLRDTPDFSDLYILLHTSLDSAMNSEKSQIAGANAVLTKFSSPELTKCLIEAARTVVAQGEGHHHHHH | soluble |
| TQGERRQAEQLAVQTARTISYMPPVKELIERKDGHAAQTQEVIEQMKEQTGAFAIYVLNEKGDIRSASGKSGLKKLERSREILFGGSHVSETKADGRRVIRGSAPIIKEQKGYSQVIGSVSVDFLQT | not soluble |
| MSGWNVNASSFVPNANARPFVPGQPYTPQPEQAAPEPTEDWEAQADTSPAAVQPEVAEPVAVQESAPVAPVSATEAPKKEPTPEEDLVAPLAKKFQRTVYVDDGTHKEHINMVFVGHVDAGKSTIGGQLMFLTGMVDKRTLEKYEREAKEKGRESWYLSWCMDTNDEEREKGKTVEVGRAYFETEKRHFTILDAPGHKSFVPNMIVGANQADLAVLVISARRGEFETGFDRGGQTREHSMLVKTAGVKHLVILVNKMDDPTVKWEEERFKEIEGKLTPFLRKLGFNPKTDITYVPCSGLTGAFIKDRPTGSEGNWYSGPCFIEFIDVLLPSYKRDFNGPVRCTVAEKYSEMGTVIIGKMESGCVQKGDTLVVMPNKQPVQVLQIWADDVETERVVAGDNIKFKLKGIEENELQGGFIICSPDSLAKTGRVFDAEVLVLEHRSIIASGYSCVLHIQSAVEEVTVKGVIATIDKKTGEKKRAKFVKQDEKCIMRLESPEPFVLEPFKEYPYLGRFTLRDEGKTIAIGKVLKVVE | not soluble |
